Entries after “also recorded” stand apart in the source; their conditions may differ. Structures can show the parent of a compound that is named as a salt. Where two headings read alike, the source gives them in different places.
What was measured:
[1] = system: GSH; conditions: iodine 0.5% to 10% applied; preliminary experiments, FIG. 10
[2] = system: rats (Sprague-Dawley strain); assay: In-vivo evaluation of dermally-applied insulin with oxidant pretreatment: plasma glucose monitoring; parameters: species or system rat
[3] = system: non-fasted rats (Sprague-Dawley strain); assay: In-vivo evaluation of dermally-applied insulin after diethyl maleate (DEM) pretreatment: plasma glucose; parameters: species or system rat; conditions: FIG. 3
Experimental: Two non-fasted locally-grown rats (Sprague-Dawley strain) were anesthetized (15 mg/ml pentobarbital sodium, 0.2-0.3 ml i.p.). The rats were placed on their back, the abdominal hair was trimmed off, and then the skin was washed gently with distilled water. The animals were maintained with 0.1 ml pentobarbital 15 mg/ml solution to keep them continuously asleep during the experiment. Diethyl maleate, a glutathion depleting agent, was injected intraperitoneally (0.5 ml, 20% v/v ethanolic solution) to one rat only.
Blood sampling and glucose measurement were performed as described in example 5.

[4] = for applied insulin remained in the cylinder: after 3 hours
From the text: Careful attention was paid that the liquid has covered the entire skin area in the cylinder and that no leaking has occurred.

[5] = iodine-pretreated skin exposed for 2 hours to insulin; FIG. 9B
Experimental: The method was performed according to Wroblewski et al (see above) using a reverse phase column (Vydac C18, 250×4.6 mm, 5? m), and a diodearray detector.

[6] = control rats not pretreated with iodine, dermal insulin

For `II` [iodine], the “iodine concentration at which minimum level of GSH is obtained” value [1] was “about 2%”.
With `OO` [hydrogen peroxide] the plasma glucose levels ([2]; Example 6: 3 hours oxidant pretreatment (5% silver protein, 0.01% potassium permangnate, 9% hydrogen peroxide or povidone-iodine), then 50 IU Humulin R, FIG. 2) was “No glucose reduction”.
In the case of “insulin: human insulin, applied as Humulin R solution for injection, 0.5 ml equivalent to 50 IU”, the plasma/blood glucose levels ([2]; dermal insulin 50 IU, control rats without oxidant pretreatment) is reported as “no reduction; also recorded: not influenced; also recorded: almost the same levels with no change”, the plasma glucose ([3]; rat without DEM, 50 IU Humulin R dermally) is reported as “decreased relatively slower” and the “applied insulin remained in the cylinder” value ([4]; both control and iodine-treated groups) is reported as “about 77%”. For the same compound, the “applied insulin remained in the cylinder” value ([4]; control group (first value)) was 76.0±6.6%, the “applied insulin remained in the cylinder” value ([4]; iodine-treated group) was 77.3±7.8% and the “insulin quantities in the open wells” value ([4]; initial in vivo studies, insulin-containing wells on rat abdominal skin, no oxidant) was “significantly decreased”. The “insulin form found in skin extract (HPLC)” value [5] was “parent insulin was accumulated quantitatively” and the plasma insulin levels [6] was “No elevation”.
For `CCOC(=O)/C=C\C(=O)OCC` [DEM, Diethyl maleate], the plasma glucose ([3]; DEM 0.5 ml 20% v/v ethanolic solution i.p., then 50 IU Humulin R dermally) was “abrupt reduction”.

Source: patent US6667052B2, “Transdermal delivery system” (priority 1997, dated 2003)
